B1: Coiled-coil domain-containing protein 33 (Homo sapiens), Q8N5R6-5 (parent)
chain: MGEPGPPSPPAPKAAPGLIDSFSEMNNYRRAMQKMAEDILSLRRQASILEGENRILRSRLAQQEEEEGQGKASEAQNTVSMKQKLLLSELDMKKLRDRVQHLQNELIRKNDREKELLLLYQAQQPQAALLKQYQGKLQKMKALEETVRHQEKVIEKMERVLEDRLQDRSKPPPLNRQQGKPYTGFPMLSASGLPLGSMGENLPVELYSVLLAENAKLRTELDKNRHQQAPIILQQQALPVDPGELGAGGDLTERLQETHGPGHSECTETLPAQDLLSGTSDKFNLLAKLEHAQSRILSLESQLEDSARRWGREKQDLATRLQEQEKGFRHPSNSIIIEQPVSDPPGVAPRGSGGGAGSHRTPKVTGP
partner: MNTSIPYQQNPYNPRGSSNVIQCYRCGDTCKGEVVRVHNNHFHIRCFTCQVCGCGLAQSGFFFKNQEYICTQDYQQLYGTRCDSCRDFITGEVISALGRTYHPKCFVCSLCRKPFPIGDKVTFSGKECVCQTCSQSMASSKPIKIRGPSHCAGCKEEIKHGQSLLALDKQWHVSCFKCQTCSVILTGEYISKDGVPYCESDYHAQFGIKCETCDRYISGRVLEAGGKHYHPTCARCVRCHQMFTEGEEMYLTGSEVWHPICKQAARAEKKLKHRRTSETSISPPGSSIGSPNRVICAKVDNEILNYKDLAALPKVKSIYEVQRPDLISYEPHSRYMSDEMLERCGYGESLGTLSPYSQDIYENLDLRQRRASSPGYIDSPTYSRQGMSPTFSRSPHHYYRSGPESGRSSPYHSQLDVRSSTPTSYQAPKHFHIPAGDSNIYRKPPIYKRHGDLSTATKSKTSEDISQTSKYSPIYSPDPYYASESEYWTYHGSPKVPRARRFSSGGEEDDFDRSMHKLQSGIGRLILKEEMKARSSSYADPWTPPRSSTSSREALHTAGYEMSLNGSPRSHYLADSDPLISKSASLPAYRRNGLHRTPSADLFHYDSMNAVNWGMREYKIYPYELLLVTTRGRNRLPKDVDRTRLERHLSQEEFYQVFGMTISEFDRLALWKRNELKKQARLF
B2: Programmed cell death 6-interacting protein (Homo sapiens), Q8WUM4 (parent)
chain: MATFISVQLKKTSEVDLAKPLVKFIQQTYPSGGEEQAQYCRAAEELSKLRRAAVGRPLDKHEGALETLLRYYDQICSIEPKFPFSENQICLTFTWKDAFDKGSLFGGSVKLALASLGYEKSCVLFNCAALASQIAAEQNLDNDEGLKIAAKHYQFASGAFLHIKETVLSALSREPTVDISPDTVGTLSLIMLAQAQEVFFLKATRDKMKDAIIAKLANQAADYFGDAFKQCQYKDTLPKEVFPVLAAKHCIMQANAEYHQSILAKQQKKFGEEIARLQHAAELIKTVASRYDEYVNVKDFSDKINRALAAAKKDNDFIYHDRVPDLKDLDPIGKATLVKSTPVNVPISQKFTDLFEKMVPVSVQQSLAAYNQRKADLVNRSIAQMREATTLANGVLASLNLPAAIEDVSGDTVPQSILTKSRSVIEQGGIQTVDQLIKELPELLQRNREILDESLRLLDEEEATDNDLRAKFKERWQRTPSNELYKPLRAEGTNFRTVLDKAVQADGQVKECYQSHRDTIVLLCKPEPELNAAIPSANPAKTMQGSEVVNVLKSLLSNLDEVKKEREGLENDLKSVNFDMTSKFLTALAQDGVINEEALSVTELDRVYGGLTTKVQESLKKQEGLLKNIQVSHQEFSKMKQSNNEANLREEVLKNLATAYDNFVELVANLKEGTKFYNELTEILVRFQNKCSDIVFARKTERDELLKDLQQSIAREPSAPSIPTPAYQSSPAGGHAPTPPTPAPRTMPPTKPQPPARPPPPVLPANRAPSATAPSPVGAGTAAPAPSQTPGSAPPPQAQGPPYPTYPGYPGYCQMPMPMGYNPYAYGQYNMPYPPVYHQSPGQAPYPGPQQPSYPFPQPPQQSYYPQQ
partner: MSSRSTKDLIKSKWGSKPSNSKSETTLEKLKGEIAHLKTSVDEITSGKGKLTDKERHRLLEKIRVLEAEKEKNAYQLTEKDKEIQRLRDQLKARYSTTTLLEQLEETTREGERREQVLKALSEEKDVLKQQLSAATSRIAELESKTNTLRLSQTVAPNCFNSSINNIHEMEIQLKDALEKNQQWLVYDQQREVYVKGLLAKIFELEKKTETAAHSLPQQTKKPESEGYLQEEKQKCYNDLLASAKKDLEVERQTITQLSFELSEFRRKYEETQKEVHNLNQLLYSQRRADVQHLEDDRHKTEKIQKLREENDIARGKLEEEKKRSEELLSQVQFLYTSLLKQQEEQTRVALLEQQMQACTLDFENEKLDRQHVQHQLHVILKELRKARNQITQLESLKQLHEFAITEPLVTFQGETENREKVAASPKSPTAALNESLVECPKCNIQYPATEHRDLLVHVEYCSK
B3: Alpha-taxilin (Homo sapiens), P40222 (parent)
chain: MKNQDKKNGAAKQSNPKSSPGQPEAGPEGAQERPSQAAPAVEAEGPGSSQAPRKPEGAQARTAQSGALRDVSEELSRQLEDILSTYCVDNNQGGPGEDGAQGEPAEPEDAEKSRTYVARNGEPEPTPVVNGEKEPSKGDPNTEEIRQSDEVGDRDHRRPQEKKKAKGLGKEITLLMQTLNTLSTPEEKLAALCKKYAELLEEHRNSQKQMKLLQKKQSQLVQEKDHLRGEHSKAVLARSKLESLCRELQRHNRSLKEEGVQRAREEEEKRKEVTSHFQVTLNDIQLQMEQHNERNSKLRQENMELAERLKKLIEQYELREEHIDKVFKHKDLQQQLVDAKLQQAQEMLKEAEERHQREKDFLLKEAVESQRMCELMKQQETHLKQQLALYTEKFEEFQNTLSKSSEVFTTFKQEMEKMTKKIKKLEKETTMYRSRWESSNKALLEMAEEKTVRDKELEGLQVKIQRLEKLCRALQTERNDLNKRVQDLSAGGQGSLTDSGPERRPEGPGAQAPSSPRVTEAPCYPGAPSTEASGQTGPQEPTSARA
partner: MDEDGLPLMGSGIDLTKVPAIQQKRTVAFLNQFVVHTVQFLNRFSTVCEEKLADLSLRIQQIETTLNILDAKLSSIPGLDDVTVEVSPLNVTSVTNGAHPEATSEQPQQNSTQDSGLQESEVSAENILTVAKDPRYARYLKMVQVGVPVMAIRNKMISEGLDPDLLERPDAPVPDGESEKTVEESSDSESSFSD
B4: Protein FAM9B (Homo sapiens), Q8IZU0 (parent)
chain: MAAWGKKHAGKDPVRDECEERNRFTETREEDVTDEHGEREPFAETDEHTGANTKKPEDTAEDLTAKRKRMKMDKTCSKTKNKSKHALRKKQLKRQKRDYIHSLKLLNVLEEYITDEQKEEEEEEGEEEELIRIFQEQQKKWQQYRSVRRERLKEMKLLRDQFVKALEDFEDLCDRVFSDEDSELDN
partner: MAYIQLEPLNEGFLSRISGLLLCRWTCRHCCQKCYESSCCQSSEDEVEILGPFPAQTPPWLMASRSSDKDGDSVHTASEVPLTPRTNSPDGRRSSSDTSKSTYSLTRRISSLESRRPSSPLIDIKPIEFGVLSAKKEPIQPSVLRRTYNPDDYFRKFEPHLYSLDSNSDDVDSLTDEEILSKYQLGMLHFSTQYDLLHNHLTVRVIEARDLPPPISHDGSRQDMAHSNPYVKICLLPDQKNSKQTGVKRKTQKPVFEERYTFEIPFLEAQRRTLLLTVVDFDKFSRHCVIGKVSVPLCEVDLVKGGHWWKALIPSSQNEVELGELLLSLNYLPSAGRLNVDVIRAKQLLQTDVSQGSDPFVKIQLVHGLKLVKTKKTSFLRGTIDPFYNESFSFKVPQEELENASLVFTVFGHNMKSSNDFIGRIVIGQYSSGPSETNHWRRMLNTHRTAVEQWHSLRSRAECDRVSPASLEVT
B5: Ribonuclease inhibitor (Homo sapiens), P13489 (parent)
chain: MSLDIQSLDIQCEELSDARWAELLPLLQQCQVVRLDDCGLTEARCKDISSALRVNPALAELNLRSNELGDVGVHCVLQGLQTPSCKIQKLSLQNCCLTGAGCGVLSSTLRTLPTLQELHLSDNLLGDAGLQLLCEGLLDPQCRLEKLQLEYCSLSAASCEPLASVLRAKPDFKELTVSNNDINEAGVRVLCQGLKDSPCQLEALKLESCGVTSDNCRDLCGIVASKASLRELALGSNKLGDVGMAELCPGLLHPSSRLRTLWIWECGITAKGCGDLCRVLRAKESLKELSLAGNELGDEGARLLCETLLEPGCQLESLWVKSCSFTAACCSHFSSVLAQNRFLLELQISNNRLEDAGVRELCQGLGQPGSVLRVLWLADCDVSDSSCSSLAATLLANHSLRELDLSNNCLGDAGILQLVESVRQPGCLLEQLVLYDIYWSEEMEDRLQALEKDKPSLRVIS
B6: WD repeat domain-containing protein 83 (Homo sapiens), Q9BRX9 (parent)
chain: MAFPEPKPRPPELPQKRLKTLDCGQGAVRAVRFNVDGNYCLTCGSDKTLKLWNPLRGTLLRTYSGHGYEVLDAAGSFDNSSLCSGGGDKAVVLWDVASGQVVRKFRGHAGKVNTVQFNEEATVILSGSIDSSIRCWDCRSRRPEPVQTLDEARDGVSSVKVSDHEILAGSVDGRVRRYDLRMGQLFSDYVGSPITCTCFSRDGQCTLVSSLDSTLRLLDKDTGELLGEYKGHKNQEYKLDCCLSERDTHVVSCSEDGKVFFWDLVEGALALALPVGSGVVQSLAYHPTEPCLLTAMGGSVQCWREEAYEAEDGAG

This is an account of results in IntAct's records for PubMed 31515488.

The first experiment covers variants of B1. The note with it: with ablm3_human ABLIM3, O94929.
As to R30L, the “effect of a mutation on the interaction” value is “with no effect”.

In the next experiment the parent is B2. As to conditions: with cep55_human CEP55, Q53EZ4.
As to S730L, the “effect of a mutation on the interaction” value is given as “with no effect”.
Consider A309T, for which the “effect of a mutation on the interaction” value is “with no effect”.
As for G778A, the “effect of a mutation on the interaction” value is given as “with no effect”.
On the same count and under the same terms, under N550S stands “with no effect”; under G429S, “with no effect”.

The variants in a further experiment derive from B3. The note with it: with wasc3_human WASHC3, Q9Y3C0.
Take S514R: the “effect of a mutation on the interaction” value was “with no effect”.
P541S: the “effect of a mutation on the interaction” value was “with no effect”.

In another experiment the parent is B4. The note with it: with syt17_human SYT17, Q9BSW7.
For the variant R23H, the “effect of a mutation on the interaction” value is on record as “with no effect”.

In a further experiment the parent is B5. The note with it: with sdcb1_human SDCBP.
As to R110C, the “effect of a mutation on the interaction” value is on record as “disrupting interaction strength”.

Variants of B6 are the subject of another experiment. As to conditions: with keap1_human KEAP1, Q14145.
keap1_human KEAP1, Q14145, sequence (Q14145 whole entry): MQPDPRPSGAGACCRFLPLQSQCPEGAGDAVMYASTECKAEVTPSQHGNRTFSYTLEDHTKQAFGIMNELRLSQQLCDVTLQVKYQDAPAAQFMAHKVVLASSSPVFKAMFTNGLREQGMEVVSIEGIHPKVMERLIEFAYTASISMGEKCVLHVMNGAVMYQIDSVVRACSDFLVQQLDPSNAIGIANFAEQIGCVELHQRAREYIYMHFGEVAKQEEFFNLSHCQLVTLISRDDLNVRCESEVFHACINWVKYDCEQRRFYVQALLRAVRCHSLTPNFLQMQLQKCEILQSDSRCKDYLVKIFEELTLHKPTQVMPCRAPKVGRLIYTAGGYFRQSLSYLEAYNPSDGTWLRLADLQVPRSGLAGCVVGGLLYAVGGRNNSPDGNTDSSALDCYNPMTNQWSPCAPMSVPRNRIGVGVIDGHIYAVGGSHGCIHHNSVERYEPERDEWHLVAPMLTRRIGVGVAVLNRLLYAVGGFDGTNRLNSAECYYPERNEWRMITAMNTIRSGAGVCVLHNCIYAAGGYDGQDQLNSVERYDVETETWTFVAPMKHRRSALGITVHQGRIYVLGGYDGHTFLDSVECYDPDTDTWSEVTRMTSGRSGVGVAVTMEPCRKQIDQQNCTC
As to G278S, the “effect of a mutation on the interaction” value is “with no effect”.
